Biological target: GST-Mdm2, wild type, bacterially expressed and purified (pGEX-4T-1) (human, UniProt Q00987 1-491)
Assay: cell-based or functional assay

GST-Mdm2, wild type, bacterially expressed and purified (pGEX-4T-1), sequence (Q00987 whole entry): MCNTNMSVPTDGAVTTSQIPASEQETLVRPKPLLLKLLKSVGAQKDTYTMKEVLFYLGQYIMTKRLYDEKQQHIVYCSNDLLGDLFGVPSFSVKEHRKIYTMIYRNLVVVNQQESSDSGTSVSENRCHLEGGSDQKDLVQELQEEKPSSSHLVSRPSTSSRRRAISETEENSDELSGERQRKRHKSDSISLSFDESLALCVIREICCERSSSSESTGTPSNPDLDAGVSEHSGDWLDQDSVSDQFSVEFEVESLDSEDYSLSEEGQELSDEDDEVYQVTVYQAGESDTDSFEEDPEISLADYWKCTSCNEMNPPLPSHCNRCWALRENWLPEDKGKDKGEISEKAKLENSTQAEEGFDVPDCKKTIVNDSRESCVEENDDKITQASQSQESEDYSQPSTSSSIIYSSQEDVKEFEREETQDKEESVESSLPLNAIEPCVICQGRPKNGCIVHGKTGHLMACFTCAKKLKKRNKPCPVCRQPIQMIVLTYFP

molar ratio required for inhibition of Mdm2 sumoylation: ~1 molar ratio p19^ARF:Mdm2
B1: p19^ARF, wild type (other, UniProt Q64364 1-169, looked up)
chain: MGRRFLVTVRIQRAGRPLQERVFLVKFVRSRRPRTASCALAFVNMLLRLERILRRGPHRNPGPGDDDGQRSRSSSSAQLRCRFELRGPHYLLPPGARRSAGRLPGHAGGAARVRGSAGCARCLGSPAARLGPRAGTSRHRAIFAFRWVLFVFRWVVFVYRWERRPDRRA
